The values below come from paper PMC9100651 (2022).

The experiment has as its target GABARAP (Homo sapiens, UniProt O95166). The experiment can be described thus: MST, SPR.

GABARAP, sequence (O95166 1-116): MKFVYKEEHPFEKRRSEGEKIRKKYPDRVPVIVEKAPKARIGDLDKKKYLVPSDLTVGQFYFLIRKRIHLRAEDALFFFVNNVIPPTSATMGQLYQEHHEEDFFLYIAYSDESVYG

B1: K1 peptide (peptide)
chain: DATYTWEHLAWP
Molecule B1 displayed a dissociation constant (Kd) of roughly 3000 nM.
